Measurements from patent US20050282743A1, “Molecular interactions in cells” (Arbor Vita Corporation, priority 2001, published 2005).

How the values were obtained:
[1] = molecular target: GST-PAR3 PDZ domain 3 (Homo sapiens (Human)), Q8TEW0; assay: G assay titration, PDZ 1 ug/ml
[2] = molecular target: T1, GST-FLJ 10324 PDZ domain 1 [GST: P08515]; assay: G' assay; further: key of the grades not given here
T1 chain: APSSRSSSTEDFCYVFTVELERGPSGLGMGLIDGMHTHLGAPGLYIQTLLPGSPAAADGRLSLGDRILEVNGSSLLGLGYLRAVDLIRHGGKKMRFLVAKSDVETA

[3] = molecular target: T2, GST-PICK1 PDZ domain 1 (Bos taurus (Bovine)), Q2T9M1; assay: G' assay; further: key of the grades not given here
T2 chain: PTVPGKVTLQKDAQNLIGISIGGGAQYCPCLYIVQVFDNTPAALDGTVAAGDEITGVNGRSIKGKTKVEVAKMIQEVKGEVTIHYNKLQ

[4] = molecular target: T3, GST-KIAA1719 PDZ domain 6 (Homo sapiens (Human)), Q9C0E4; assay: G' assay; further: key of the grades not given here
T3 chain: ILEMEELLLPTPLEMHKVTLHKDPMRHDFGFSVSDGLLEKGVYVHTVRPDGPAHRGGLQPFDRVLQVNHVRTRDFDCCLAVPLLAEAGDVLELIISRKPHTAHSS

[5] = molecular target: T4, GST-GRIP 1 PDZ domain 6 (Mus musculus (Mouse)), Q925T6; assay: G' assay; further: key of the grades not given here
T4 chain: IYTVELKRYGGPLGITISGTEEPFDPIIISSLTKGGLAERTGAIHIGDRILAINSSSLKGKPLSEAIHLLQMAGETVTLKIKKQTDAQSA

[6] = molecular target: T5, GST-INADL PDZ domain 3 (Homo sapiens (Human)), Q8NI35; assay: G' assay; further: key of the grades not given here
T5 chain: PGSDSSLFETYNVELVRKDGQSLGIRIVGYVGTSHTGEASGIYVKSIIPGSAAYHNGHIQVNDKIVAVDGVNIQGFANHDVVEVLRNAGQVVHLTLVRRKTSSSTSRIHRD

[7] = molecular target: T6, GST-ZO-1 PDZ domain 2 (Rattus norvegicus (Rat)), A0A0G2; assay: G' assay; further: key of the grades not given here
T6 chain: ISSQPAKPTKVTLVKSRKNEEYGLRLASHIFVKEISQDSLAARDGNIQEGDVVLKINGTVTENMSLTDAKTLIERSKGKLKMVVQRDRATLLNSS

[8] = molecular target: GST-PAR3 PDZ domain 3 (Homo sapiens (Human)), Q8TEW0; assay: G' assay; further: key of the grades not given here
[9] = molecular target: T7, GST-MUPP1 PDZ domain 3 (Homo sapiens (Human)), O75970; assay: G' assay; further: key of the grades not given here
T7 chain: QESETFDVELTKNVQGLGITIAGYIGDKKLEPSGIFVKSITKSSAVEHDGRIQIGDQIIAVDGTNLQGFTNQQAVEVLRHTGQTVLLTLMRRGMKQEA

[10] = molecular target: T8, GST-KIAA0380 PDZ domain 1 (Homo sapiens (Human)), O15085; assay: G' assay; further: key of the grades not given here
T8 chain: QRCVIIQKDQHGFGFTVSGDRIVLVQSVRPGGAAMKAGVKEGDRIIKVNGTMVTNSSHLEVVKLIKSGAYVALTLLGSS

[11] = molecular target: T9, GST-MUPP1 PDZ domain 7 (Homo sapiens (Human)), O75970; assay: G' assay; further: key of the grades not given here
T9 chain: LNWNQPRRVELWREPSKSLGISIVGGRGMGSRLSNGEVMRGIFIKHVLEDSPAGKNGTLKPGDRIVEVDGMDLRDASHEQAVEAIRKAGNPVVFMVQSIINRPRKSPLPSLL

[12] = molecular target: T10, GST-AIPC PDZ domain 1 (Homo sapiens (Human)), O15018; assay: G' assay; further: key of the grades not given here
T10 chain: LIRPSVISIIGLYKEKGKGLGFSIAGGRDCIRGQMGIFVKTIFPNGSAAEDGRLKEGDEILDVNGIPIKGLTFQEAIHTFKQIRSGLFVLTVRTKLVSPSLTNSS

[13] = molecular target: T11, GST-KIAA1719 PDZ domain 5 (Homo sapiens (Human)), Q9C0E4; assay: G' assay; further: key of the grades not given here
T11 chain: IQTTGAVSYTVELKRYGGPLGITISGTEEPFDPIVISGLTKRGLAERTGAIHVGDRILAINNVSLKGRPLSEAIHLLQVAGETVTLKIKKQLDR

[14] = molecular target: T12, GST-MUPP1 PDZ domain 9 (Homo sapiens (Human)), O75970; assay: G' assay; further: key of the grades not given here
T12 chain: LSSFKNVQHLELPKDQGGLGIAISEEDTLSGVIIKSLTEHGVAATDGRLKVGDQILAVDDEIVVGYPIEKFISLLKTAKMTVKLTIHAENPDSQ

[15] = molecular target: T13, GST-MINT1 PDZ domains 1, 2, Q02410; assay: G' assay; further: key of the grades not given here
T13 chain: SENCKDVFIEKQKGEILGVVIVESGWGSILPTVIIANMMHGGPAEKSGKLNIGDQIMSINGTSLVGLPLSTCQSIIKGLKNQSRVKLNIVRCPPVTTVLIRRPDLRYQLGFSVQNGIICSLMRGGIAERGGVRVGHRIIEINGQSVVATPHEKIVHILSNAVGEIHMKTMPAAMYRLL

[16] = molecular target: T1, GST-FLJ 10324 PDZ domain 1 [GST: P08515]; assay: G assay titration, PDZ 5 ug/ml
[17] = molecular target: T2, GST-PICK1 PDZ domain 1 (Bos taurus …); assay: G assay titration, PDZ 5 ug/ml
[18] = molecular target: T3, GST-KIAA1719 PDZ domain 6 (Homo sapiens …); assay: G assay titration, PDZ 5 ug/ml
[19] = molecular target: T4, GST-GRIP 1 PDZ domain 6 (Mus musculus …); assay: G assay titration, PDZ 5 ug/ml
[20] = molecular target: T5, GST-INADL PDZ domain 3 (Homo sapiens …); assay: G assay titration, PDZ 5 ug/ml
[21] = molecular target: T6, GST-ZO-1 PDZ domain 2 (Rattus …); assay: G assay titration, PDZ 5 ug/ml
[22] = molecular target: T7, GST-MUPP1 PDZ domain 3 (Homo sapiens …); assay: G assay titration, PDZ 5 ug/ml
[23] = molecular target: T9, GST-MUPP1 PDZ domain 7 (Homo sapiens …); assay: G assay titration, PDZ 5 ug/ml
[24] = molecular target: T10, GST-AIPC PDZ domain 1 (Homo sapiens …); assay: G assay titration, PDZ 5 ug/ml
[25] = molecular target: T11, GST-KIAA1719 PDZ domain 5 (Homo sapiens …); assay: G assay titration, PDZ 5 ug/ml
[26] = molecular target: T12, GST-MUPP1 PDZ domain 9 (Homo sapiens …); assay: G assay titration, PDZ 5 ug/ml
[27] = molecular target: T13, GST-MINT1 PDZ domains 1, 2, Q02410; assay: G assay titration, PDZ 5 ug/ml
[28] = molecular target: T14, GST-PTPL1 PDZ domain 5 (Homo sapiens (Human)), Q12923; assay: G' assay; further: key of the grades not given here
T14 chain: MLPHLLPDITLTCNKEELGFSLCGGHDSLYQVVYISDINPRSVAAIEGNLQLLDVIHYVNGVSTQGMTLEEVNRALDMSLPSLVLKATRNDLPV

[29] = molecular target: GST-CARD14 PDZ domain 1 (Homo sapiens (Human)), Q9BXL6; assay: G' assay; further: key of the grades not given here
Chain of GST-CARD14 PDZ domain 1 (Homo sapiens (Human)), Q9BXL6 (Q9BXL6 565-664): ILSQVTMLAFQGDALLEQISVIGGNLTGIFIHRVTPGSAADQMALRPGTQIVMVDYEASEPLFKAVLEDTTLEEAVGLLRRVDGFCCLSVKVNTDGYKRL

[30] = molecular target: T15, GST-GRIP 1 PDZ domain 5 (Homo sapiens (Human)), Q9Y3R0; assay: G' assay; further: key of the grades not given here
T15 chain: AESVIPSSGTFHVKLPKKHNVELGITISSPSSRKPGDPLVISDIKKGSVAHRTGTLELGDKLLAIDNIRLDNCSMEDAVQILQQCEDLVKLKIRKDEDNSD

[31] = molecular target: T16, GST-LU-1 PDZ domain 1 (Homo sapiens (Human)), Q76G19; assay: G' assay; further: key of the grades not given here
T16 chain: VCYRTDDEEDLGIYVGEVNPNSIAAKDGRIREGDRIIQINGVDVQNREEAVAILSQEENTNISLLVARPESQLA

[32] = molecular target: T17, GST-APXL-1 PDZ domain 1 (Homo sapiens (Human)), Q13796; assay: G' assay; further: key of the grades not given here
T17 chain: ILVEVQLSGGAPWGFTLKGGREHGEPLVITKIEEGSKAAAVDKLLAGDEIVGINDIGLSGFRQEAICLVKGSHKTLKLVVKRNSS

[33] = molecular target: T18, GST-KIAA0973 PDZ domain 1 (Homo sapiens (Human)), Q9Y2H9; assay: G' assay; further: key of the grades not given here
T18 chain: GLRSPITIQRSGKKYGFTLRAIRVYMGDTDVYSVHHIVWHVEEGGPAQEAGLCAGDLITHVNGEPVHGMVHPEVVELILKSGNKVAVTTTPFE

[34] = molecular target: T19, GST-KIAA1719 PDZ domain 3 (Homo sapiens (Human)), Q9C0E4; assay: G' assay; further: key of the grades not given here
T19 chain: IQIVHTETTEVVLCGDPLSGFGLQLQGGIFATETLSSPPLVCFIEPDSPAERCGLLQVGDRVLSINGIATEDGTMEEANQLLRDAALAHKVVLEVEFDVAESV

[35] = molecular target: T20, GST-MUPP1 PDZ domain 4 (Homo sapiens (Human)), O75970; assay: G' assay; further: key of the grades not given here
T20 chain: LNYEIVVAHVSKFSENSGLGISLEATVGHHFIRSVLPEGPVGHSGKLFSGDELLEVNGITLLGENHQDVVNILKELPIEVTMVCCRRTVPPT

[36] = molecular target: T21, GST-MINT1 PDZ domain 2 (Mus musculus (Mouse)), B2RUJ5; assay: G' assay; further: key of the grades not given here
T21 chain: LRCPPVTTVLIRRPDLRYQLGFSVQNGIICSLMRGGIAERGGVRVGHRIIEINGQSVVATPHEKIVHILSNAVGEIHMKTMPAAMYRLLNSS

[37] = molecular target: T22, GST-DVL2 PDZ domain 1 (Homo sapiens (Human)), O14641; assay: G' assay; further: key of the grades not given here
T22 chain: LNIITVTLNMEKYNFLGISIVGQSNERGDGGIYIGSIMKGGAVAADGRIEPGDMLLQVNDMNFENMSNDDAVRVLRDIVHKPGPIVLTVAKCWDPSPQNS

[38] = molecular target: T23, GST-MPP2 PDZ domain 1 (Homo sapiens (Human)), Q14168; assay: G' assay; further: key of the grades not given here
T23 chain: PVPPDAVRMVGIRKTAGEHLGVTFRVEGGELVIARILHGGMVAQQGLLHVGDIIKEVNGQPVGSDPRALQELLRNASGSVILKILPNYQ

[39] = molecular target: T24, GST-HEMBA 1003117 PDZ domain 1 (Homo sapiens (Human)), Q96JH8; assay: G' assay; further: key of the grades not given here
T24 chain: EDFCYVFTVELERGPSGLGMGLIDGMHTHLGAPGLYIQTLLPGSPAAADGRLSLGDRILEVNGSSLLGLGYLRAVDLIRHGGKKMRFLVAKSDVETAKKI

Chain of GST-PAR3 PDZ domain 3 (Homo sapiens (Human)), Q8TEW0 (Q8TEW0 579-681): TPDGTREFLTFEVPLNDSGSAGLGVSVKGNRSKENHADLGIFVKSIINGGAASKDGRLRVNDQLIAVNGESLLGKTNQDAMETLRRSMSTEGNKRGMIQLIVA

Q: How did the Kd [1] turn out when HHLVAQRDIRQFQLQHWLAI (modifications not checked) [noradrenaline transporter] was run?
A: 600 nM

Q: And the Classification [2]?
A: 3 A450 class

Q: What about the Classification [3] of the same binder?
A: 1 A450 class

Q: What about the Classification [4] of the same binder?
A: 2 A450 class

Q: What about the Classification [5] of the same binder?
A: 2 A450 class

Q: And the Classification [6]?
A: 3 A450 class

Q: What about the Classification [7] of the same binder?
A: 2 A450 class

Q: What about the Classification [8] of the same binder?
A: 4 A450 class

Q: And the Classification [9]?
A: 4 A450 class

Q: And the Classification [10]?
A: 1 A450 class

Q: What about the Classification [11] of the same binder?
A: 3 A450 class

Q: And the Classification [12]?
A: 2 A450 class

Q: And the Classification [13]?
A: 2 A450 class

Q: What about the Classification [14] of the same binder?
A: 3 A450 class

Q: And the Classification [15]?
A: 3 A450 class

Q: What about the Kd [16] of the same binder?
A: 600 nM

Q: And the Kd [17]?
A: 1000 nM

Q: What about the Kd [18] of the same binder?
A: 800 nM

Q: And the Kd [19]?
A: 500 nM

Q: And the Kd [20]?
A: 600 nM

Q: And the Kd [21]?
A: 400 nM

Q: And the Kd [22]?
A: 400 nM

Q: What about the Kd [23] of the same binder?
A: 800 nM

Q: And the Kd [24]?
A: 600 nM

Q: And the Kd [25]?
A: 1000 nM

Q: What about the Kd [26] of the same binder?
A: 700 nM

Q: What about the Kd [27] of the same binder?
A: 500 nM

Q: Which Classification [28] does the source give for DFRPSFKHILFRRARRGFRQ (modifications not checked) [alpha-2C Adrenergic receptor] here?
A: 3 A450 class

Q: And the Classification [29]?
A: 5 A450 class

Q: And the Classification [30]?
A: 1 A450 class

Q: And the Classification [31]?
A: 4 A450 class

Q: What about the Classification [32] of the same binder?
A: 3 A450 class

Q: What about the Classification [33] of the same binder?
A: 3 A450 class

Q: And the Classification [34]?
A: 5 A450 class

Q: What about the Classification [35] of the same binder?
A: 3 A450 class

Q: What about the Classification [36] of the same binder?
A: 3 A450 class

Q: What about the Classification [37] of the same binder?
A: 3 A450 class

Q: Which results are given for LAVLAYSITLVMLWSIWQYA (modifications not checked) [Serotonin receptor 3a]?
A: Classification [38]: 2 A450 class; Classification [39]: 2 A450 class; Classification [29]: 2 A450 class
